Results published in patent US6913892.
Where no end group is shown, it is not given here.

Target: Y2-like receptor population expressed by human SK-N-Be(2) neuroblastoma cells
Experiment: 125I-PYY displacement, SK-N-Be(2) membranes

- Ki: 0.86 nM
Binder: SPEELSRYYASLRHYLNLVTRQRY-NH2 (peptide, UniProt P68005 13-36, looked up) [porcine PYY13-36]
